The record followed here is US20230143604A1, “QW DOSING OF GIP RECEPTOR AGONIST PEPTIDE COMPOUNDS AND USES THEREOF” (TAKEDA PHARMACEUTICAL COMPANY LIMITED, priority 2020, published 2023).

Starred links: 1 amine or outer side, 2 acyl side, 3 side chain; linkers in the order of their positions; H or OH if unused. Non-standard residues stand in square brackets, D forms with d. Residues, ends and D or L forms follow the SMILES beside them. Groups on a side chain read outwards from the residue. No end group written: not given here. *: point of attachment. C18 diacid = O=C(O)CCCCCCCCCCCCCCCCC(=O)*; γGlu = O=C(O)[C@H](CCC(=O)[*:2])N[*:1]; NMeY = CN[C@@H](Cc1ccc(O)cc1)C(=O)O; AEEA = NCCOCCOCC(=O)O; Aib = CC(C)(N)C(=O)O Bounds are passed on as bounds.

One may read the EC50 as the concentration giving half of the maximal effect. In general, solubility refers to how much of the substance goes into solution per volume. Read a low solubility as a poorly soluble substance.

In one data set the target is T1, human GLP-1R (Homo sapiens, UniProt P43220).
T1 construct: HEK-293T cells overexpressing full-length human GLP-1R; FLAG (N); host or cells: HEK-293T
T1 sequence (P43220 24-463): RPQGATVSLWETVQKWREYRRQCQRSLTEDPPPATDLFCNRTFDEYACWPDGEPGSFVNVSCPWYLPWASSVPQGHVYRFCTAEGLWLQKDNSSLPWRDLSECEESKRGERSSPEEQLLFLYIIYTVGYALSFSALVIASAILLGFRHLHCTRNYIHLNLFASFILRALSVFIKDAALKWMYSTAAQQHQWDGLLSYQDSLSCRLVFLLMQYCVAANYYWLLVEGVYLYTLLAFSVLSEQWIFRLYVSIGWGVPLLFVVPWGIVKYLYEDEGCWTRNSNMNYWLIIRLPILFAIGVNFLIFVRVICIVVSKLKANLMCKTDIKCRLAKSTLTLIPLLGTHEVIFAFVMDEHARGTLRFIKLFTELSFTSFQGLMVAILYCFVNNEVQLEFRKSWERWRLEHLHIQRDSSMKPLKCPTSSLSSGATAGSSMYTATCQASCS
Nature of the data set: Human GLP1R agonist activity, intracellular cAMP accumulation. The class given is cell-based. Conditions: HEK-293T cells overexpressing human GLP-1R, 1 hr, read-out: Human GLP1R cAMP EC50, HEK293T. How it is done:
Cells are cultured per the manufacturer's protocol in DMEM with 10% fetal bovine serum and 1 μg/mL puromycin and stored in frozen aliquots to be used as assay ready cells. On the day of the assay, cells are removed from frozen storage, washed two times in 1× Kreb's Ringer Buffer (Zenbio, Research Triangle Park, N.C.), and re-suspended to a concentration of 4×10^5 cells/mL in 1× Kreb's Ringer Buffer. […] Cells are incubated with test compound for 1 hr at room temperature in the dark, and cAMP accumulation is measured using the Cisbio HiRange cAMP assay kit (Bedford, Mass.) per the manufacturer's protocol. Anti-cAMP antibody and d2-cAMP tracer reagents diluted in lysis/detection buffer are incubated in the dark for 1 hr, and results are measured on an Envision plate reader (Perkin Elmer, Waltham, Mass.). Data is normalized using 1 nm GLP-1 as 100% activity, and DMSO alone as 0% activity.

A short description of a further data set: physchem. The gist of the method:
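3 mg of peptide treated with 100 μL portions of 200 mM phosphate buffer pH 7.4, sonicating/vortexing up to 1 min, with further buffer added until fully dissolved. Solubility then quantified by HPLC.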

For data set [1], the target named is full-length human GLP-1R with an N-terminal FLAG tag, overexpressed on HEK-293T cells (human, UniProt P43220 24-463). The experiment in a line: cell-based or functional assay.
Data set [2] addresses T2, full-length human GIPR with an N-terminal FLAG tag, overexpressed on HEK-293T cells (human, UniProt P48546 22-466).
T2 sequence (looked up): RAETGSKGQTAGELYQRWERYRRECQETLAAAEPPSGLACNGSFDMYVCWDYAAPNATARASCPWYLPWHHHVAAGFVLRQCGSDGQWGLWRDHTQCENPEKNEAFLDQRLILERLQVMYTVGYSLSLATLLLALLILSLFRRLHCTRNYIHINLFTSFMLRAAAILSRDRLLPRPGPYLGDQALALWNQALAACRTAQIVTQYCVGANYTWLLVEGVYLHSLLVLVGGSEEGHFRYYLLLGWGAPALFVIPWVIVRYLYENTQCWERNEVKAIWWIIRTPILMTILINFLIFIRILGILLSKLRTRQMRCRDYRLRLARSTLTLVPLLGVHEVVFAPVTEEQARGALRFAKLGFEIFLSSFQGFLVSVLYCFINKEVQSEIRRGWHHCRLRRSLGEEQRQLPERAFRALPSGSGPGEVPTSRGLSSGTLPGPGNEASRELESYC
Nature of the data set: cell-based or functional assay.

As to `CC[C@H](C)[C@H](NC(=O)[C@H](CO)NC(=O)[C@H](Cc1ccc(O)cc1)NC(=O)[C@H](CC(=O)O)NC(=O)[C@H](CO)NC(=O)[C@@H](NC(=O)[C@H](Cc1ccccc1)NC(=O)[C@@H](NC(=O)CNC(=O)[C@H](CCC(=O)O)NC(=O)C(C)(C)NC(=O)[C@H](Cc1ccc(O)cc1)NC)[C@@H](C)O)[C@@H](C)CC)C(=O)N[C@@H](C)C(=O)N[C@@H](CCCCNC(=O)CNC(=O)CNC(=O)CNC(=O)CNC(=O)CNC(=O)CCCCCCCCCCCCCCCCC(=O)O)C(=O)N[C@@H](CC(=O)O)C(=O)N[C@@H](CO)C(=O)NC(C)(C)C(=O)N[C@@H](C)C(=O)N[C@@H](CCC(N)=O)C(=O)NC(C)(C)C(=O)N[C@@H](CC(=O)O)C(=O)N[C@@H](Cc1ccccc1)C(=O)N[C@H](C(=O)N[C@@H](CC(N)=O)C(=O)N[C@@H](Cc1c[nH]c2ccccc12)C(=O)N[C@@H](CC(C)C)C(=O)N[C@@H](CC(C)C)C(=O)N[C@@H](C)C(=O)N[C@@H](CCC(N)=O)C(=O)N[C@@H](CO)C(=O)NCC(=O)O)C(C)C` [Compound 60], at human GLP-1R, the EC50 worked out at 100 nM. In addition, the solubility in “physchem” (pH 7.4) is at least 15 mg/mL; in the data set “physchem” (pH 7.4, aqueous buffer), at least 30 mg/mL.

`CC[C@H](C)[C@H](NC(=O)[C@H](CO)NC(=O)[C@H](Cc1ccc(O)cc1)NC(=O)[C@H](CC(=O)O)NC(=O)[C@H](CO)NC(=O)[C@@H](NC(=O)[C@H](Cc1ccccc1)NC(=O)[C@@H](NC(=O)CNC(=O)[C@H](CCC(=O)O)NC(=O)C(C)(C)NC(=O)[C@H](Cc1ccc(O)cc1)NC)[C@@H](C)O)[C@@H](C)CC)C(=O)N[C@@H](C)C(=O)N[C@@H](CCCCNC(=O)CNC(=O)CNC(=O)CNC(=O)CNC(=O)CNC(=O)CCCCCCCCCCCCCCCCC(=O)O)C(=O)N[C@@H](CC(=O)O)C(=O)N[C@@H](CO)C(=O)NC(C)(C)C(=O)N[C@@H](C)C(=O)N[C@@H](CCC(N)=O)C(=O)NC(C)(C)C(=O)N[C@@H](CC(=O)O)C(=O)N[C@@H](Cc1ccccc1)C(=O)N[C@H](C(=O)N[C@@H](CC(N)=O)C(=O)N[C@@H](Cc1c[nH]c2ccccc12)C(=O)N[C@@H](CC(C)C)C(=O)N[C@@H](CC(C)C)C(=O)N[C@@H](C)C(=O)N[C@@H](CCC(N)=O)C(=O)N[C@@H](CCCCN)C(=O)NCC(=O)O)C(C)C` [Compound 75]: on human GLP-1R, the EC50 worked out at 550 nM. Further, the solubility in the data set “physchem” (pH 7.4) was at least 15 mg/mL; in the data set “physchem” (pH 7.4, aqueous buffer) it was at least 30 mg/mL.

On to `CC[C@H](C)[C@H](NC(=O)[C@H](CO)NC(=O)[C@H](Cc1ccc(O)cc1)NC(=O)[C@H](CC(=O)O)NC(=O)[C@H](CO)NC(=O)[C@@H](NC(=O)[C@H](Cc1ccccc1)NC(=O)[C@@H](NC(=O)CNC(=O)[C@H](CCC(=O)O)NC(=O)C(C)(C)NC(=O)[C@H](Cc1ccc(O)cc1)NC)[C@@H](C)O)[C@@H](C)CC)C(=O)N[C@@H](C)C(=O)N[C@@H](CCCCNC(=O)CNC(=O)CNC(=O)CNC(=O)CNC(=O)CNC(=O)CCCCCCCCCCCCCCCCC(=O)O)C(=O)N[C@@H](CC(=O)O)C(=O)N[C@@H](CCCCN)C(=O)NC(C)(C)C(=O)N[C@@H](C)C(=O)N[C@@H](CCC(N)=O)C(=O)NC(C)(C)C(=O)N[C@@H](CC(=O)O)C(=O)N[C@@H](Cc1ccccc1)C(=O)N[C@H](C(=O)N[C@@H](CC(N)=O)C(=O)N[C@@H](Cc1c[nH]c2ccccc12)C(=O)N[C@@H](CC(C)C)C(=O)N[C@@H](CC(C)C)C(=O)N[C@@H](C)C(=O)N[C@@H](CCC(N)=O)C(=O)N[C@@H](CCCCN)C(=O)NCC(=O)O)C(C)C` [Compound 76], for which the EC50 on human GLP-1R was 28.8 nM. The solubility in “physchem” (pH 7.4) was at least 15 mg/mL; in the data set “physchem” (pH 7.4, aqueous buffer), at least 30 mg/mL.

`CC[C@H](C)[C@H](NC(=O)[C@H](Cc1ccccc1)NC(=O)[C@@H](NC(=O)CNC(=O)[C@H](CCC(=O)O)NC(=O)C(C)(C)NC(=O)[C@H](Cc1ccc(O)cc1)NC)[C@@H](C)O)C(=O)N[C@@H](CO)C(=O)N[C@@H](CC(=O)O)C(=O)N[C@@H](Cc1ccc(O)cc1)C(=O)N[C@@H](CO)C(=O)N[C@H](C(=O)NC(C)(C)C(=O)N[C@@H](CC(C)C)C(=O)N[C@@H](CC(=O)O)C(=O)N[C@@H](CCCNC(=N)N)C(=O)NC(C)(C)C(=O)N[C@@H](C)C(=O)N[C@@H](CCC(N)=O)C(=O)NC(C)(C)C(=O)N[C@@H](CCCCNC(=O)COCCOCCNC(=O)COCCOCCNC(=O)CCCCCCCCCCCCCCCCC(=O)O)C(=O)N[C@@H](Cc1ccccc1)C(=O)N[C@H](C(=O)N[C@@H](CC(N)=O)C(=O)N[C@@H](Cc1c[nH]c2ccccc12)C(=O)N[C@@H](CC(C)C)C(=O)N[C@@H](CC(C)C)C(=O)N[C@@H](C)C(=O)N[C@@H](CCC(N)=O)C(=O)N[C@@H](CCCNC(=N)N)C(=O)NCC(=O)O)C(C)C)[C@@H](C)CC` [Compound 219] (H-[NMeY][Aib]EGTFISDYSI[Aib]LDR[Aib]AQ[Aib]K([AEEA-AEEA-C18 diacid])FVNWLLAQRG-OH): at human GLP-1R, the EC50 is 17.4 nM.

In the case of [NMeY][Aib]EGTFISDYSI[Aib]LDR[Aib]AQ[Aib]K([G5-γGlu-γGlu-C18 diacid])FVNWLLAQRG-OH [Compound No. 210], the “Human GLP1R cAMP EC50, HEK293T” value in data set [1] stood at 10.7 nM. The “Human GIPR cAMP EC50, HEK293T” value in data set [2] was found to be 0.0003 nM.

As for [NMeY][Aib]EGTFISDYSI[Aib]LDR[Aib]AQ[Aib]K([AEEA-AEEA-C18 diacid])FVNWLLAQRG-OH [Compound No. 219], in data set [1], the “Human GLP1R cAMP EC50, HEK293T” value worked out at 17.4 nM. Further, the “Human GIPR cAMP EC50, HEK293T” value in data set [2] is 0.0008 nM.

[NMeY][dA]EGTFISDYSI[Aib]LDR[Aib]AQ[Aib]K([AEEA-AEEA-γGlu-γGlu-C18 diacid])FVNWLLAQRG-OH [Compound No. 217]: the “Human GLP1R cAMP EC50, HEK293T” value in data set [1] was determined as 135 nM. Also, the “Human GIPR cAMP EC50, HEK293T” value in data set [2] is 0.0006 nM.

On to [NMeY][Aib]EGTFISDYSI[Aib]LDR[Aib]AQ[Aib]K([AEEA-AEEA-γGlu-C18 diacid])FVNWLLAQRG-OH [Compound No. 208], for which, in data set [1], the “Human GLP1R cAMP EC50, HEK293T” value stood at 9.33 nM. Also, the “Human GIPR cAMP EC50, HEK293T” value in data set [2] was 0.0003 nM.

In the case of [NMeY][Aib]EGTFISDYSI[Aib]LDR[Aib]AQAK([AEEA-AEEA-γGlu-γGlu-C18 diacid])FVNWLLAQRG-OH [Compound No. 215], the “Human GLP1R cAMP EC50, HEK293T” value in data set [1] was 61.7 nM. Also, the “Human GIPR cAMP EC50, HEK293T” value in data set [2] is 0.0005 nM.

With [NMeY][Aib]EGTFISDYSI[Aib]LDR[Aib]AA[Aib]K([AEEA-AEEA-γGlu-γGlu-C18 diacid])FVNWLLAQRG-OH [Compound No. 212], in data set [1], the “Human GLP1R cAMP EC50, HEK293T” value was 42.7 nM. For the same molecule, the “Human GIPR cAMP EC50, HEK293T” value in data set [2] was found to be 0.0003 nM.

Regarding [NMeY][Aib]EGTFISDYSI[Aib]LDRAAQ[Aib]K([AEEA-AEEA-γGlu-γGlu-C18 diacid])FVNWLLAQRG-OH [Compound No. 214], in data set [1], the “Human GLP1R cAMP EC50, HEK293T” value was determined as 28.8 nM. The “Human GIPR cAMP EC50, HEK293T” value in data set [2] was determined as 0.0014 nM.

On to [NMeY][Aib]EGTFISDYSIALDRAAQAK([AEEA-AEEA-γGlu-γGlu-C18 diacid])FVNWLLAQRG-OH [Compound No. 216], for which the “Human GLP1R cAMP EC50, HEK293T” value in data set [1] came out at 79.4 nM. In addition, in data set [2], the “Human GIPR cAMP EC50, HEK293T” value came to 0.0005 nM.

For the molecule [NMeY]AEGTFISDYSI[Aib]LDR[Aib]AQ[Aib]K([AEEA-AEEA-γGlu-γGlu-C18 diacid])FVNWLLAQRG-OH [Compound No. 218], in data set [1], the “Human GLP1R cAMP EC50, HEK293T” value came to 38 nM. Also, the “Human GIPR cAMP EC50, HEK293T” value in data set [2] came out at 0.0005 nM.
